Experimental findings from paper PMC6796740 are described below.

The target of the data set is human transferrin receptor (hTfR, hTfR1) extracellular domain (Homo sapiens, UniProt P02786 89-760). In words: SPR. On the technique in general: In SPR one partner is held on a chip, and binding of the other changes the refractive index at the surface.
Sequence of human transferrin receptor (hTfR, hTfR1) extracellular domain (P02786 89-760): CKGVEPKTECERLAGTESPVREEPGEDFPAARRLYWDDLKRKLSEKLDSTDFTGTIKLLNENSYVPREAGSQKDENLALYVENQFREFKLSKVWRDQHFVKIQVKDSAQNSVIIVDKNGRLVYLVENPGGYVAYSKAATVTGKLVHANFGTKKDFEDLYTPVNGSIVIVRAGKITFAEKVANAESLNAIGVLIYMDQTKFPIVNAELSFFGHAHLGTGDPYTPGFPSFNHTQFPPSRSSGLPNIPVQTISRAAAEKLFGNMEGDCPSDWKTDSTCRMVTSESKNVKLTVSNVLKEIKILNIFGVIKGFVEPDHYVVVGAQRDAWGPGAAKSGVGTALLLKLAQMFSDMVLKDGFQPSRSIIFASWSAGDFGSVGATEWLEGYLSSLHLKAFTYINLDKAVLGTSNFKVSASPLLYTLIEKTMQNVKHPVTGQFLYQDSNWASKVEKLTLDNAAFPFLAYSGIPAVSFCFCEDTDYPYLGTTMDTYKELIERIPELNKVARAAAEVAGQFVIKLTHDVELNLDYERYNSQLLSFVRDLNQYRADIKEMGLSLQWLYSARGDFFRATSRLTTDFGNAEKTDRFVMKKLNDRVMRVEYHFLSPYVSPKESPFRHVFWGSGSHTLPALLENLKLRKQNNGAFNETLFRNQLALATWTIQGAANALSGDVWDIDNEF

B1: TR14 ST1-1 (40 nt) (structured_RNA)
RNA: GCUCAAUGCGUUCACGUUUAUUCACAUUUUUGAAUUGAGC
modifications: 2'-F pyrimidines presumed, not restated for truncates
Consider B1, for which the binding result is “no binding”.

B2: TR14 ST1-2 (32 nt) (structured_RNA)
RNA: AAUGCGUUCACGUUUAUUCACAUUUUUGAAUU
modifications: 2'-F pyrimidines presumed, not restated for truncates
Turning to B2, the binding result was “no binding”.
